Results: PMC3993263

T1: RaaS (UniProt O86312)
T1 sequence: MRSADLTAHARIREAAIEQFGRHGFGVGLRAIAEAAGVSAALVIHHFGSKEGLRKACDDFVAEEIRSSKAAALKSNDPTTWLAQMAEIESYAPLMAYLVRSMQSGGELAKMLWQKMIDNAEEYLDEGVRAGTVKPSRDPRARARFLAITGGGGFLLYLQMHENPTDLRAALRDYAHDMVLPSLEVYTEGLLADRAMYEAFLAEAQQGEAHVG

T2: RaaS (UniProt O86312 1-212)
T2 sequence: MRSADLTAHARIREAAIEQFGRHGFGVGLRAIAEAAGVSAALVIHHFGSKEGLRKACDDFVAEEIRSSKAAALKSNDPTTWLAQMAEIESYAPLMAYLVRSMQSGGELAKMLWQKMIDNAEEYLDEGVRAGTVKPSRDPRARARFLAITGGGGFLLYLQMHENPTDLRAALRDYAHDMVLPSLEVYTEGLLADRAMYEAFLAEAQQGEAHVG

B1: M5 (dsDNA)
DNA 1: GGGATGAACGTACGAAAAATATCCTGAACATGCGTTCAG
DNA 2: GGGCTGAACGCATGTTCAGGATATTTTTCGTACGTTCAT
B2: M6 (single repeat) (dsDNA)
DNA 1: GGGTGAACATGCGTTCA
DNA 2: GGGTGAACGCATGTTCA

Assays:
RaaS [1] = target: T1, RaaS; assay: fluorescence anisotropy; settings: anisotropy: 50 mM Tris-HCl pH 8.5, 150 mM NaCl, temperature not stated
RaaS [2] = target: T2, RaaS; assay: EMSA; 20 nM DNA, 170 nM RaaS; […]; anisotropy: 50 mM Tris-HCl pH 8.5, 150 mM NaCl; temperature not stated; settings: protein: recombinant; tags: 6xHis (pET15-Tev); chain copies: 2; label: 32P; 5' overhang 3 nt on both strands

Molecule | Kd (RaaS [1]) | binding result (RaaS [2])
labeled RaaS-site oligonucleotide (anisotropy) | 31 nM | 
B1 |  | no binding
B2 |  | no binding
